Test system: N[C@@H](CCC(=O)N[C@H]1CSSC[C@H](NC(=O)CC[C@H](N)C(=O)O)C(=O)NCC(=O)NCCCNCCCCNC(=O)CNC1=O)C(=O)O
Test: purified protein, by the assay type
Conditions: pH 7.4, 25.0 °C

Substance | Km (other: 340 nm assay) | Km (other: saturating NADPH)
TbTryR (Trypanosoma brucei brucei TREU927) | 6.9 ± 0.7 µM | 
TbTryR (recombinant T. b. brucei trypanothione reductase) (Trypanosoma brucei brucei TREU927) |  | 2.35 ± 0.07 µM

Reference: publication PMC2789240, “Comparative structural, kinetic and inhibitor studies of Trypanosoma brucei trypanothione reductase with T. cruzi^” (Molecular and Biochemical Parasitology, 2010)
